Columns and labels:
[1] = molecular target: FL HA H1N1 (influenza A virus H1N1); experiment: SEC-MALS of FL HA with Fab; theoretical value for trimer with 3 Fabs in brackets
sH1 mini-HA GW1.5E2-FFH = conditions: remark: other sources report otherwise
[2] = molecular target: T1, sH1 mini-HA GW1.5E2-FFH (Influenza A virus H1N1 A/Brisbane/59/2007); experiment: SEC-MALS with Fab fragments; conditions: remark: other sources report otherwise
s127H1 = experiment: SEC-MALS of polypeptide with Fab; conditions: remark: other sources report otherwise
s55G7 = experiment: SEC-MALS of polypeptide with Fab; conditions: remark: other sources report otherwise
s6E12 = experiment: SEC-MALS of polypeptide with Fab; conditions: remark: other sources report otherwise
s74H9 = experiment: SEC-MALS of polypeptide with Fab; conditions: remark: other sources report otherwise
s86B4 = experiment: SEC-MALS of polypeptide with Fab; conditions: remark: other sources report otherwise
[3] = molecular target: T1, sH1 mini-HA GW1.5E2-FFH (Influenza A …); experiment: biolayer interferometry (Octet), apparent Kd; CR6261; conditions: remark: other sources report otherwise

Q: For Fab fragment of CR6261, which Mw of protein in complex with CRF6261, observed [1] is on record?
A: 396 kDa

Q: For Fab fragment of CR9114, which Mw of protein in complex with CRF9114, observed [1] is on record?
A: 343 kDa

B1: Fab fragment of CR6261 (Fab, V domains shown)
VH: EVQLVESGAEVKKPGSSVKVSCKASGGPFRSYAISWVRQAPGQGPEWMGGIIPIFGTTKYAPKFQGRVTITADDFAGTVYMELSSLRSEDTAMYYCAKHMGYQVRETMDVWGKGTTVTVSS
VL: QSVLTQPPSVSAAPGQKVTISCSGSSSNIGNDYVSWYQQLPGTAPKLLIYDNNKRPSGIPDRFSGSKSGTSATLGITGLQTGDEANYYCATWDRRPTAYVVFGGGTKLTVLG
Q: For B1, which Mw of protein in complex with CRF6261, observed (sH1 mini-HA GW1.5E2-FFH) is on record?
A: 201 kDa

Q: And the Fab fragments bound per trimer (Fab fragments per trimer) [2]?
A: 3

Q: What about the MW complex with CR6261, observed (s127H1) of the same molecule?
A: 74 kDa

Q: What about the MW complex with CR6261, observed (s55G7) of the same molecule?
A: 66 kDa

Q: What about the MW complex with CR6261, observed (s6E12) of the same molecule?
A: 67 kDa

Q: And the MW complex with CR6261, observed (s74H9)?
A: 72 kDa

Q: And the MW complex with CR6261, observed (s86B4)?
A: 75 kDa

B2: monoclonal antibody CR6261 (antibody, V domains shown)
VH: B1 VH
VL: B1 VL
Q: B2 was tested. Which Kd [3] did it give?
A: 1 nM

From patent US20170209564A1
